Among the targets are RamR I141T (Klebsiella pneumoniae, UniProt A0A0H3GJQ8 1-194, I141T); RamR WT (Klebsiella pneumoniae, UniProt A0A0H3GJQ8 1-194); RamR L58P (Klebsiella pneumoniae, UniProt A0A0H3GJQ8 1-194, L58P).
What all share (test): EMSA; 2 uM protein, 200 nM DNA
Settings in all cases: protein: recombinant; tags: N-terminal His6; chain copies: 2; label: none (NA-Green stain); blunt
A general note: Mobility shift assays separate free from complexed probe on a gel.

The values below come from PMC12806483, “Dual role of ramR mutation in enhancing immune activation and elevating eravacycline resistance in Klebsiella pneumoniae”.

B1: ramA promoter probe (ramA P-F/ramA P-R) (dsDNA)
DNA 1: AAAACGAATCGTCCTGCATGCCCAGGCAGCACCGCGCGAGCGCGCAGGTCGTCGGCAGCCTGAGCCGTTTCATCCGGCATCATGTGGATATATTTCCAGTC
DNA 2: GACTGGAAATATATCCACATGATGCCGGATGAAACGGCTCAGGCTGCCGACGACCTGCGCGCTCGCGCGGTGCTGCCTGGGCATGCAGGACGATTCGTTTT
In the case of B1, the figures for the binding result with RamR I141T, with RamR WT and with RamR L58P were “binds”, “binds” and “no binding”, respectively.
